What is called Km is the concentration of substrate that gives half-maximal velocity. For orientation: kcat means the number of substrate molecules converted per active site and unit of time at saturation. For orientation: kcat/Km means the turnover number divided by the Michaelis constant. A word on the Ki: it is a dissociation constant, usually derived from enzyme kinetics or from competition with a known ligand. A lower Ki goes with higher affinity.

Here are results for 5 molecules from PMC3581539, “Biochemical and Mutational Analysis of a Novel Nicotinamidase from Oceanobacillus iheyensis HTE831” (PLoS ONE, 2013).

In one series the test system is NC(=O)c1cnccn1. The series is described as follows: steady-state kinetics (Km), GDH-coupled spectrophotometric assay. Format: biochemical, Oceanobacillus iheyensis.
The target of another series is T1, nicotinamidase (OiNIC) (Oceanobacillus iheyensis, UniProt Q8ESQ6).
T1 construct: gene OB0565
T1 sequence (Q8ESQ6 1-183): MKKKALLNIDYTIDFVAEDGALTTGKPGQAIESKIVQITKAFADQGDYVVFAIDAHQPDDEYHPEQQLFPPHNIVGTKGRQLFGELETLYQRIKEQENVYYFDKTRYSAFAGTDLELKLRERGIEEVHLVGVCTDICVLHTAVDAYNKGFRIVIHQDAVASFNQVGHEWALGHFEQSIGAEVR

For the next series, the system named is NC(=O)c1cccnc1. As to the kind of experiment: steady-state kinetics (Km), GDH-coupled spectrophotometric assay. To be noted: Zn2+ active site. It counts as biochemical, Oceanobacillus iheyensis.
Substrate in series [1]: Cc1cncc(C(N)=O)c1
Described as above. It counts as biochemical, Oceanobacillus iheyensis. To be noted: Zn2+.

Substrate in series [2]: NC(=O)c1cnccn1
The description is as above. To be noted: Zn2+ active site. It counts as biochemical, Oceanobacillus iheyensis.

Substrate in series [3]: NC(=O)c1cccnc1
As to the kind of experiment: steady-state kinetics (Km), HPLC and GDH-coupled assay. It counts as biochemical, Oceanobacillus iheyensis. To be noted: Zn2+ active site.

Substrate in series [4]: CCOC(=O)c1cccnc1
The series is described as follows: steady-state kinetics (Km), HPLC. Format: biochemical, Oceanobacillus iheyensis. To be noted: Zn2+.

Substrate in series [5]: COC(=O)c1cccnc1
As to the kind of experiment: steady-state kinetics (Km), HPLC. It counts as biochemical, Oceanobacillus iheyensis. To be noted: Zn2+.

In the case of “nicotinamidase (OiNIC) (Oceanobacillus iheyensis HTE831; F69W)”, in the series on NC(=O)c1cnccn1 (Zn2+ active site cavity), the Km stood at 500 ± 20 µM, the kcat amounted to 3.94 ± 0.1 s⁻¹ and the kcat/Km was 7900 M⁻¹ s⁻¹.

Regarding `O=Cc1cccnc1` [nicotinaldehyde], the Ki at nicotinamidase (OiNIC) came to 3.4 µM. This counts as single-digit micromolar.

As for “nicotinamidase (OiNIC) (Oceanobacillus iheyensis HTE831; E65H)”, in the series on NC(=O)c1cccnc1, the Km turned out to be 130 ± 10 µM, the kcat was 5.63 ± 0.2 s⁻¹ and the kcat/Km was found to be 42600 M⁻¹ s⁻¹.

For “nicotinamidase (OiNIC) (Oceanobacillus iheyensis HTE831; C133A)”, in the series on NC(=O)c1cnccn1 (Zn2+ active site), the Michaelis-Menten constant (Km) was 360 ± 20 µM, the kcat turned out to be 3.31 ± 0.1 s⁻¹ and the kcat/Km worked out at 9190 M⁻¹ s⁻¹.

B1: nicotinamidase (OiNIC) (Oceanobacillus iheyensis HTE831) (protein)
chain: MKKKALLNIDYTIDFVAEDGALTTGKPGQAIESKIVQITKAFADQGDYVVFAIDAHQPDDEYHPEQQLFPPHNIVGTKGRQLFGELETLYQRIKEQENVYYFDKTRYSAFAGTDLELKLRERGIEEVHLVGVCTDICVLHTAVDAYNKGFRIVIHQDAVASFNQVGHEWALGHFEQSIGAEVR
Consider B1, for which the Km was found to be 680 ± 20 µM in series [1]; 810 ± 10 µM in series [2]; 260 ± 20 µM in series [3]; 1020 ± 10 µM in series [4]; 1030 ± 10 µM in series [5]. The turnover number (kcat) in series [1] turned out to be 5.1 ± 0.02 s⁻¹; in series [2], 2.6 ± 0.1 s⁻¹; in series [3] it was 11.65 ± 0.1 s⁻¹; in series [4], 0.1 ± 0.01 s⁻¹; in series [5], 0.32 ± 0.02 s⁻¹. Moreover, the kcat/Km turned out to be 7500 M⁻¹ s⁻¹ in series [1]; 3200 M⁻¹ s⁻¹ in series [2]; 43500 M⁻¹ s⁻¹ in series [3]; 100 M⁻¹ s⁻¹ in series [4]; 310 M⁻¹ s⁻¹ in series [5].
